Biological target: cnkr1_human CNKSR1 (UniProt Q969H4)
Sequence (Q969H4 whole entry): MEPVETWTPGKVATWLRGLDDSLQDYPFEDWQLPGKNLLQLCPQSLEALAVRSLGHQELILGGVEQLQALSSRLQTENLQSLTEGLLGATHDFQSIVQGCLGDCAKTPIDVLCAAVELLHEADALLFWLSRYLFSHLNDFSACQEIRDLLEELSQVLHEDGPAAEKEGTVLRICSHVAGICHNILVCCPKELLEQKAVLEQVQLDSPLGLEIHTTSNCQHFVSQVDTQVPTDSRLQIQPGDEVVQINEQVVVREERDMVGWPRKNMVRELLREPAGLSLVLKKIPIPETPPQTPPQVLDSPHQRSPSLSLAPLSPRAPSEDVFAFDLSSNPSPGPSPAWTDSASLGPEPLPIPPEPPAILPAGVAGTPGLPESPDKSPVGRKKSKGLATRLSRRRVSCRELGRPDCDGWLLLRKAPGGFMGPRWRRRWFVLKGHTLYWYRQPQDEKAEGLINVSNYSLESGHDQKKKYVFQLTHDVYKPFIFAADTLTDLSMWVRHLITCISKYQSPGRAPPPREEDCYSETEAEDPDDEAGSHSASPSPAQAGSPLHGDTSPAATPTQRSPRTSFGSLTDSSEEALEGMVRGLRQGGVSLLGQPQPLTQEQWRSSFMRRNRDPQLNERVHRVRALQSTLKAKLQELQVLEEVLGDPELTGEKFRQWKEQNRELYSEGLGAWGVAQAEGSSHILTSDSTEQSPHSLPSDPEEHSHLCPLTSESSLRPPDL

effect of a mutation on the interaction: increasing interaction
Substance: Rho-related GTP-binding protein RhoC (Homo sapiens), P08134 G14V

From IntAct's records for PubMed 15670823
